Earlier results as cited in paper PMC9506339.
Like-named read-outs stand apart in the source and are kept apart here.

How the values were obtained:
[1] = target: vitamin D-binding protein (UniProt P02774)
[2] = target: vitamin D-binding protein (UniProt P02774); remark: listed apart in the source

UniProt P02774, sequence (P02774 17-474): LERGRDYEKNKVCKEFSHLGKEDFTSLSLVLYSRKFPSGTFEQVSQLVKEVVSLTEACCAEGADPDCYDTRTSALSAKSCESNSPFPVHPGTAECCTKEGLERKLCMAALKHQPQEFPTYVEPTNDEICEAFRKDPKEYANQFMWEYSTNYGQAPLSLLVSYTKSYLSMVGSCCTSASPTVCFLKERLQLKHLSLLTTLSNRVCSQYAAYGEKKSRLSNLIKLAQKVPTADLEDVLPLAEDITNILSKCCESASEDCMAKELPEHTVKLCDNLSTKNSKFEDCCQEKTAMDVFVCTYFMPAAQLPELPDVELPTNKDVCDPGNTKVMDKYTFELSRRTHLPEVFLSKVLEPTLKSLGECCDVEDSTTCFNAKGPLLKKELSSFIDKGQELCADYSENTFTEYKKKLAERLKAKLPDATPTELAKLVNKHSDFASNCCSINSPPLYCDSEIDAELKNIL

Row | Substance | Kd [1] | Kd [2]
1 | megalin (from UniProt P98164) | 120 nM | –
2 | cubilin (from UniProt O60494) | – | 110 nM
